Where “and” joins values, the source holds several entries; their conditions need not be identical. Equal entries are not always repeated.
Assays:
[1] = biological target: T1, sIL-4Rα (antigen, expressed according to NM_000418.4) (human, UniProt P24394 26-232, limits assumed); assay: indirect ELISA, sIL-4Rα coated on plate, enzyme labeled secondary antibody, average value of 6 runs
T1 construct: Soluble form coated on the ELISA plate; also called human interleukin-4 receptor alpha
T1 sequence (looked up): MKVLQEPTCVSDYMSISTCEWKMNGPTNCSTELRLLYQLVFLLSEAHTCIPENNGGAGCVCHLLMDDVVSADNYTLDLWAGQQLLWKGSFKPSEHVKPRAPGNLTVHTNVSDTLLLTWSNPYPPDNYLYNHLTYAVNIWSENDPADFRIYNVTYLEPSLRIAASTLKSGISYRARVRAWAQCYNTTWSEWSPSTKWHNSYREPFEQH
Method: (§1) The antigen (sIL-4Rα, expressed according to NM_000418.4) was coated and absorbed on a solid phase plate for ELISA, and then plate was washed, blocked and washed again before adding the samples to be tested for binding with the antigen. The samples to be tested were dilutions of the formulation prepared according to Example 6 of the present application, and the dilutions were obtained by diluting the formulation with 1% BSA to an antibody concentration of 1000 ng/mL, and subsequently performing a gradient dilution from an initial concentration of 1000 ng/mL to a concentration of 0 ng/mL. The unbound antibody was removed through washing after incubation, and an enzyme labeled secondary antibody was added for further incubation. After the unbound enzyme labeled secondary antibody was removed through washing, enzyme reaction substrate was added for color developing. Finally, the reaction was stopped by adding a stop solution, and absorbance values were read at 450 nm and 655 nm on a microplate reader. According to the absorbance values, half effective concentration EC₅₀ was calculated by curve fitting.

[2] = biological target: T1, sIL-4Rα (antigen, expressed according …); assay: indirect ELISA, sIL-4Rα coated on plate, enzyme labeled secondary antibody, run 3
Method: as §1

[3] = biological target: T1, sIL-4Rα (antigen, expressed according …); assay: indirect ELISA, sIL-4Rα coated on plate, enzyme labeled secondary antibody, run 2
Method: as §1

[4] = biological target: T1, sIL-4Rα (antigen, expressed according …); assay: indirect ELISA, sIL-4Rα coated on plate, enzyme labeled secondary antibody, run 5
Method: as §1

[5] = biological target: T1, sIL-4Rα (antigen, expressed according …); assay: indirect ELISA, sIL-4Rα coated on plate, enzyme labeled secondary antibody, run 6
Method: as §1

[6] = biological target: T2, human interleukin-4 receptor alpha on HEK Blue IL4/IL13 cells (human, UniProt P24394 26-825); assay: cell-based or functional assay
T2 sequence (looked up): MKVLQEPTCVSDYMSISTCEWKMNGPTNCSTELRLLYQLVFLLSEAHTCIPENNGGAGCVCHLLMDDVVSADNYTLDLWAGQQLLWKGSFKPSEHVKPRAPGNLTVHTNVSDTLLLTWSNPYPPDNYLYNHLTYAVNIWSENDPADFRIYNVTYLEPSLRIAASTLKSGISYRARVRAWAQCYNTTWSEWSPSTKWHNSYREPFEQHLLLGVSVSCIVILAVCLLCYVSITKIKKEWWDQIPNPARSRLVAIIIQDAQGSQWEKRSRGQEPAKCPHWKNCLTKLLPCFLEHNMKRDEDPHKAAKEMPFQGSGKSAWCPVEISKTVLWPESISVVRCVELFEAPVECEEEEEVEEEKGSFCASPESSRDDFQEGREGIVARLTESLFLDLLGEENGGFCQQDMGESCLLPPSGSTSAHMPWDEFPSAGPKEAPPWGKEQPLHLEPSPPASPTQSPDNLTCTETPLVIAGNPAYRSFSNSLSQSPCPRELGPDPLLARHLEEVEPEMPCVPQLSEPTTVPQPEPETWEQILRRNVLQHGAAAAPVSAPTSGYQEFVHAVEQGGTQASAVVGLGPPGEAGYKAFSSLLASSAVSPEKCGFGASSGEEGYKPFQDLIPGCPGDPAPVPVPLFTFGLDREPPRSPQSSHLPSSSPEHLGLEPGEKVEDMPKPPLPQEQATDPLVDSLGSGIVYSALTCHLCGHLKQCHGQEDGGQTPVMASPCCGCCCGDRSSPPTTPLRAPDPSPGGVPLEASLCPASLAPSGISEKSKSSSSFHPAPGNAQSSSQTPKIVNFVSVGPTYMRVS

[7] = biological target: T1, sIL-4Rα (antigen, expressed according …); assay: indirect ELISA, sIL-4Rα coated on plate, enzyme labeled secondary antibody, run 1
Method: as §1

[8] = biological target: T1, sIL-4Rα (antigen, expressed according …); assay: indirect ELISA, sIL-4Rα coated on plate, enzyme labeled secondary antibody, run 4
Method: as §1

EC50 [1]: 1.69 ng/mL and 1.56 ng/mL
EC50 [2]: 1.84 ng/mL and 1.77 ng/mL
EC50 [3]: 1.52 ng/mL and 1.28 ng/mL
EC50 [4]: 1.77 ng/mL and 1.84 ng/mL
EC50 [5]: 1.53 ng/mL and 1.45 ng/mL
IC50 (average value) of blocking STAT-6 signal transduction, HEK Blue IL4/IL13 cells with 0.5 ng/mL IL4, Quanti-blue absorbance at 650 nM [6]: 4.19 ng/mL and 4.51 ng/mL
EC50 [7]: 1.59 ng/mL and 1.4 ng/mL
EC50 [8]: 1.85 ng/mL and 1.8 ng/mL
B1: CBP-201 (antibody, human IgG4 S228P, kappa, V domains shown)
VH: EVQLVESGGGLVQPGGSLRLSCAASGFTFSRNAMFWVRQAPGKGLEWVSGIGTGGATSYADSVKGRFTISRDNAKNSLYLQMNSLRAEDTAVYYCARGRYYFDYWGQGTLVTVSS
VL: EIVLTQSPGTLSLSPGERATLSCRASQSVSSSYLAWYQQKPGQAPRLLIYGASSRATGIPDRFSGSGSGTDFTLTISRLEPEDFAVYYCQQYDHSAGWTFGQGTKVEIKR
notes: Monoclonal antibody; also called CBP-201 antibody; CBP-201 formulation

— US20220348666A1 (SUZHOU CONNECT BIOPHARMACEUTICALS, published 2022)
